Experimental data from PMC9200344, “The Caenorhabditis elegans TDRD5/7-like protein, LOTR-1, interacts with the helicase ZNFX-1 to balance epigenetic signals in the germline” (PLoS Genetics, 2022).

B1: MIP-2 (natural protein, C. elegans (endogenous in young adults), UniProt P90898 1-666, looked up)
chain: MSEEEGKEKMNKMRKRIERDAYSVLLSFKDGASPKQVEQRMDDTLGYDYCSKYHLAGVYDMAQILIEHPDVRQTYEGKFKIIANEDNQDLVDLISKQSDGPRNKGSSKRGRRSSSSAGYHQRSMFGGELSRSPRYSSCRPRSYASFGKAASKKLFQNFGQPSRPFSVLSSSKASTSSAIQSFGTGNHDSTFGKSSGSNANPTNPPVAPSIQRPLMRPSTASSIPIFILRSGSRSPVKKHVQIKTSSSSSHMPTITEFMNNTKRMMVKELPASVHLSEMTELYEREFGAPVDPLLLFSKSWMLMAKTTFKEFLQVIDGEVSLREKWLADQGTTTKSVLELPSRKVEATTVAQLPISQGFRYQDPNSKPKADLASISKSLDGLTLNARKSKKEASKSDMMPFIPKNHREIVTKRFGNAPSSVKADSIVERVQSTSCIFGRQSVPSVLSISSSSTVVPEKLNEEGLKYDSKELLQLKALKKTDVMLVNVYASLKAFPQMIDARAKALMQQNLEVQRNMASRASLNVVAQVQRPSSSINLQRVRVNPNQCVKKVVPVRTLGQALAEVRRQREQVEQEAFNEQPEPSPSPRLGMGSSSHAASNVSDDGWGAQVVQKVEKSPPKPFTVLLPPMSKGAGVKIRPRSRVVLCHSSASSFPPSLNSDFSPNISQA
notes: MIP-2, LOTUS-domain protein, C. elegans; source: endogenous, C. elegans young adult lysate

Columns and labels:
[1] = biological target: 3xFLAG::GFP::LOTR-1 with Tudor deletion (sam102) (C. elegans (endogenous in embryos and young adults)); experiment: affinity purification with mass spectrometry; anti-FLAG (M2) IP of 3xFLAG::GFP::LOTR-1 (wild type, LOTUS or Tudor deletion) on Protein G magnetic beads from embryo and young adult extracts, 4°C, washes with 300 mM NaCl; quantitative MS against the lotr-1 deletion expressing 3xFLAG::GFP alone
[2] = biological target: 3xFLAG::GFP::LOTR-1 with e+mLOTUS deletion (sam113) (C. elegans (endogenous in embryos and young adults)); experiment: as above
3xFLAG::GFP::ZNFX-1 = biological target: T1, 3xFLAG::GFP::ZNFX-1 (C. elegans (endogenous in embryos and …, UniProt E9P860 1-2443)); experiment: affinity purification with mass spectrometry; anti-FLAG IP of 3xFLAG::GFP::ZNFX-1 from embryos and adults of lotr-1(xf58) mutants (in-frame deletion that removes most of the LOTUS domain); quantitative MS compared with the wild-type background; settings: partners not purified
T1 construct: ZNFX-1, Z-granule helicase, C. elegans; also called FLAG-tagged ZNFX-1; source: tagged ZNFX-1 expressed in worms, C. elegans embryo and young adult lysate
T1 sequence (E9P860 whole entry, the tested form may be a part): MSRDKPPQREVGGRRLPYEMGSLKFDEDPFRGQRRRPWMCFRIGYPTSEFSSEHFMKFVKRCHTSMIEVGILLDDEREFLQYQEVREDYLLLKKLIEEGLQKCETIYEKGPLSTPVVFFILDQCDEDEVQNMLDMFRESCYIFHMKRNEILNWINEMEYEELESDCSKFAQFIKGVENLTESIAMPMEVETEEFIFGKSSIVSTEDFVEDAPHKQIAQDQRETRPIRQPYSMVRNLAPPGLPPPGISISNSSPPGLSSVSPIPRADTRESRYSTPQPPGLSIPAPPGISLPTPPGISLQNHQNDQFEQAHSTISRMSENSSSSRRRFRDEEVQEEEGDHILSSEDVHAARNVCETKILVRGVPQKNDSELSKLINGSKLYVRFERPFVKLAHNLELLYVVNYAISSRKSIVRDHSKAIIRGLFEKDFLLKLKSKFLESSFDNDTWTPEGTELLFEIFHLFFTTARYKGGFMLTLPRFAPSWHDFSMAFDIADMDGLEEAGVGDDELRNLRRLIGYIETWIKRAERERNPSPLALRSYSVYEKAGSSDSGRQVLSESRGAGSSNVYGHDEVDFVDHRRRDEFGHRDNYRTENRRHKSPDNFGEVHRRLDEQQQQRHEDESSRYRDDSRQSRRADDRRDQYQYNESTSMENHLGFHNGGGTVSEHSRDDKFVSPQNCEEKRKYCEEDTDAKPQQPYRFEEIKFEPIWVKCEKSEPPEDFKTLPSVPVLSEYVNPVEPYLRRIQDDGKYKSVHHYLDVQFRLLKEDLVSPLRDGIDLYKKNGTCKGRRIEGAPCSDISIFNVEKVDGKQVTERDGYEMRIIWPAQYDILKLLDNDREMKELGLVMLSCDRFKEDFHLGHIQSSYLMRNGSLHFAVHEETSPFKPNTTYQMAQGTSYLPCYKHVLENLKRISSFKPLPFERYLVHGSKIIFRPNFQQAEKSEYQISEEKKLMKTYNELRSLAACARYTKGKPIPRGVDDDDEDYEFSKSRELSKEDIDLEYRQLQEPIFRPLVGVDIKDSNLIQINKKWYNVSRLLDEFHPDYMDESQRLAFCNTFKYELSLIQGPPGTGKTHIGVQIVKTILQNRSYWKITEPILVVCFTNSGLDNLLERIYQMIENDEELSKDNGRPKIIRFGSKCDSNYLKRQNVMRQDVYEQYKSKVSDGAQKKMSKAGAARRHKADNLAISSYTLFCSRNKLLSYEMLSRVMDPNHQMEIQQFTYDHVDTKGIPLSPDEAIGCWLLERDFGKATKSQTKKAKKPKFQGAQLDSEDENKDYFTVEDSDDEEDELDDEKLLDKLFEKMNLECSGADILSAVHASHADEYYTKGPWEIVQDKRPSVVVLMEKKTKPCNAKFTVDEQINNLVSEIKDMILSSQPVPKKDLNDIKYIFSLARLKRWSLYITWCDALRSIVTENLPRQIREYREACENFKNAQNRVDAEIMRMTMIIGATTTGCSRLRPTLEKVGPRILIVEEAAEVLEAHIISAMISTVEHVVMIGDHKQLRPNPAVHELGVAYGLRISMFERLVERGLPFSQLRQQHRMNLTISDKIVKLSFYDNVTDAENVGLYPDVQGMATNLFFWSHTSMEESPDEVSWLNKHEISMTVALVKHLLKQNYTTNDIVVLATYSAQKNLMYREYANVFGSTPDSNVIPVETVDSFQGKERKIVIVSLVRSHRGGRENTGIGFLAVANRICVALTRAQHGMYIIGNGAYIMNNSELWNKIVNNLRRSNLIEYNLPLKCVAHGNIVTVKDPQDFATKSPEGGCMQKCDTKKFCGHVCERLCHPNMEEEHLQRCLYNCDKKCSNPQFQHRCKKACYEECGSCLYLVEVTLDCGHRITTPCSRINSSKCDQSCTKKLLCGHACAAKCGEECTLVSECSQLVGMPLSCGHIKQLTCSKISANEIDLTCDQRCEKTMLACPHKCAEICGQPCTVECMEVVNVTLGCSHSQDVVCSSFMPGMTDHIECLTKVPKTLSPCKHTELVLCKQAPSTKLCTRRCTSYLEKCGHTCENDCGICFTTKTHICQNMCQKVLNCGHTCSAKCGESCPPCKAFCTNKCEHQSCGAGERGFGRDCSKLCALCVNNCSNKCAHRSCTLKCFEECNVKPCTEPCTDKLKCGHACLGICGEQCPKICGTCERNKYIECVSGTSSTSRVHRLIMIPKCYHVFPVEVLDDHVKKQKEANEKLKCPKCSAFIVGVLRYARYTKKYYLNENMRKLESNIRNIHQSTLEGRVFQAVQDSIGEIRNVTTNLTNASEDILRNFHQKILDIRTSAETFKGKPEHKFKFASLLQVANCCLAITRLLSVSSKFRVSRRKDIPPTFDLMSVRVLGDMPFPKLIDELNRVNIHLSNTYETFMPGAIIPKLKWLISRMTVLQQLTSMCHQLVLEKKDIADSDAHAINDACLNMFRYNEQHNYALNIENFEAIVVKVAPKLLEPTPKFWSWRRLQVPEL

Row | Molecule | percent reduction of association against wild-type LOTR-1 (embryos) [1] | fold change of association against wild-type LOTR-1 (embryos) [2] | fold change of association in lotr-1(xf58) mutant adults against wild type (3xFLAG::GFP::ZNFX-1)
1 | MEG-3 (natural protein) | 90% | 2 fold | 
2 | B1 |  |  | 2 fold
